Read-outs that look alike come from different tables or passages of the source.
B1: DcR3-hFc (Fc fusion)
chain: VAETPTYPWRDAETGERLVCAQCPPGTFVQRPCRRDSPTTCGPCPPRHYTQFWNYLERCRYCNVLCGEREEEARACHATHNRACRCRTGFFAHAGFCLEHASCPPGAGVIAPGTPSQNTQCQPCPPGTFSASSSSSEQCQPHRNCTALGLALNVPGSSSHDTLCTSCTGFPLSTRVPGAEECERAVIDFVAFQDISIKRLQRLLQALEAPEGWGPTPRAGRAALQLKLRRRLTELLGAQDGALLVRLLQALRVARMPGLERSVRERFLPVH
notes: also called Acro Bio TNB-H5255; not shown: The hIgG1 Fc at the C-terminus, and any linker, of the vendor reagent Acro Bio TNB-H5255
B2: recombinant human TL1A (Acro Bio TLA-H5244), plate bound (ligand)
chain: LKGQEFAPSHQQVYAPLRADGDKPRAHLTVVRQTPTQHFKNQFPALHWEHELGLAFTKNRMNYTNKFLLIPESGDYFIYSQVTFRGMTSECSEIRQAGRPNKPDSITVVITKVTDSYPEPTQLLMGTKSVCEVGSNWFQPIYLGAMFSLQEGDKLMVNVSDISLVDYTKEDKTFFGAFLL
notes: Bought protein; also called hTL1A; Tumor Necrosis Factor Ligand Superfamily Member 15
B3: recombinant human LIGHT (Acro Bio LIT-H5242) (ligand)
chain: LIQERRSHEVNPAAHLTGANSSLTGSGGPLLWETQLGLAFLRGLSYHDGALVVTKAGYYYIYSKVQLGGVGCPLGLASTITHGLYKRTPRYPEELELLVSQQSPCGRATSSSRVWWDSSFLGGVVHLEAGEKVVVRVLDERLVRLRDGTRSYFGAFMV
notes: Bought protein; also called hLIGHT; Tumor Necrosis Factor Ligand Superfamily Member 14
B4: recombinant human FASL (Acro Bio HAL-H5241) (ligand)
chain: PSPPPEKKELRKVAHLTGKSNSRSMPLEWEDTYGIVLLSGVKYKKGGLVINETGLYFVYSKVYFRGQSCNNLPLSHKVYMRNSKYPQDLVMMEGKMMSYCTTGQMWARSSYLGAVFNLTSADHLYVNVSELSLVNFEESQTFFGLYKL
notes: Bought protein; also called hFASL; FAS Ligand

Tests used:
[1] = target: B2; assay: ELISA: plate coated with recombinant human TL1A (2 µg/mL), Fc-tagged protein titrated 3-fold from 10 nM, anti-human Fc HRP, OD 450 nm background subtracted
Protocol: (§1) Briefly, Maxisorp 384 well plates (Thermo Nunc Cat #P6366-1CS) were coated with 25 μL of 2 μg/mL of recombinant human TNFSF ligands: TNFα (Acro Bio TNA-H5228), TL1A (Acro Bio TLA-H5244), FASL (Acro Bio HAL-H5241), or LIGHT (Acro Bio LIT-H5242) in PBS or were coated with PBS alone overnight at 4° C. The plates were washed 3 times with 0.1% PBS-T and incubated with SuperBlock blocking buffer (Thermo Fisher 37515) for 1 hour at room temperature with shaking at 400 RPM. […] Plates were incubated for 1 hour at room temperature with shaking at 400 RPM. ELISA plates were washed 3 times with 0.1% PBS-T and incubated with an anti-human Fc HRP conjugated secondary antibody (ThermoFisher Scientific Cat #H10307) 1:2000 in 0.1% PBS-T for 1 hour at room temperature with shaking at 400 RPM. The plates were washed 3 times with 0.1% PBS-T and incubated with 20 μL of TMB (ThermoFisher Scientific Cat #34028) per well. The reaction was stopped at 5 minutes by adding 20 μL of Stop Solution (BioFX LSTP-1000-01). […] Blank subtracted ODs were calculated by subtracting the ODs from the blank plate from the readings from each of the ligand plates and data was plotted using PRISM (version 10.0.2).

[2] = target: B2; assay: as above; remark: listed apart in the source
Protocol: as §1

[3] = target: B2; assay: as above; remark: listed apart in the source
Protocol: as §1

[4] = target: B2; assay: as above; remark: listed apart in the source
Protocol: as §1

[5] = target: B3; assay: ELISA: plate coated with recombinant human LIGHT (2 µg/mL), Fc-tagged protein titrated 3-fold from 10 nM, anti-human Fc HRP, OD 450 nm background subtracted
Protocol: as §1

[6] = target: B4; assay: ELISA: plate coated with recombinant human FASL (2 µg/mL), Fc-tagged protein titrated 3-fold from 10 nM, anti-human Fc HRP, OD 450 nm background subtracted
Protocol: as §1

[7] = target: B4; assay: as above; remark: listed apart in the source
Protocol: as §1

[8] = target: B4; assay: as above; remark: listed apart in the source
Protocol: as §1

[9] = target: B4; assay: as above; remark: listed apart in the source
Protocol: as §1

[10] = target: B2; assay: ELISA: plate coated with recombinant human TL1A (2 µg/mL), Fc-tagged protein titrated 3-fold from 10 nM, anti-human Fc HRP, OD 450 nm background subtracted; remark: listed apart in the source
Protocol: as §1

[11] = target: B4; assay: ELISA: plate coated with recombinant human FASL (2 µg/mL), Fc-tagged protein titrated 3-fold from 10 nM, anti-human Fc HRP, OD 450 nm background subtracted; remark: listed apart in the source
Protocol: as §1

[12] = target: B3; assay: ELISA: plate coated with recombinant human LIGHT (2 µg/mL), Fc-tagged protein titrated 3-fold from 10 nM, anti-human Fc HRP, OD 450 nm background subtracted; remark: listed apart in the source
Protocol: as §1

[13] = target: B3; assay: as above; remark: listed apart in the source
Protocol: as §1

[14] = target: B3; assay: as above; remark: listed apart in the source
Protocol: as §1

[15] = target: B3; assay: as above; remark: listed apart in the source
Protocol: as §1

TNFR2 ECD-Fc [16] = target: T1, TNFR2 ECD-Fc (human, UniProt P20333); assay: ELISA: plate coated with recombinant human TL1A (2 µg/mL), Fc-tagged protein titrated 3-fold from 10 nM, anti-human Fc HRP, OD 450 nm background subtracted
T1 construct: Fc region, C-terminal fusion partner; also called TNFR2 ECD-hFc; Ichor Bio ICH4022
T1 sequence (TNFR2 ECD-Fc fusion chain): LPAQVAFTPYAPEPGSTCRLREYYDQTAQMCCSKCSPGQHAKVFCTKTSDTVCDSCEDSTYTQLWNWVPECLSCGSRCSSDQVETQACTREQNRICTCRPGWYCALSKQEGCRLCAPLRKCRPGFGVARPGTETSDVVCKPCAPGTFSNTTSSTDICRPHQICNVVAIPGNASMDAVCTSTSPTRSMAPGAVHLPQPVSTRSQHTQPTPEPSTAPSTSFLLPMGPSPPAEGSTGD
Protocol: as §1

TNFR2 ECD-Fc [17] = target: T1, TNFR2 ECD-Fc; assay: ELISA: plate coated with recombinant human LIGHT (2 µg/mL), Fc-tagged protein titrated 3-fold from 10 nM, anti-human Fc HRP, OD 450 nm background subtracted
Protocol: as §1

TNFR2 ECD-Fc [18] = target: T1, TNFR2 ECD-Fc; assay: ELISA: plate coated with recombinant human FASL (2 µg/mL), Fc-tagged protein titrated 3-fold from 10 nM, anti-human Fc HRP, OD 450 nm background subtracted
Protocol: as §1

B1
EC50 (read off the curve) [1]: ~0.1 nM | EC50 (read off the curve) [2]: ~0.1 nM | EC50 (read off the curve) [3]: ~0.1 nM | EC50 (read off the curve) [4]: ~0.1 nM | EC50 (read off the curve) [5]: ~0.2 nM | EC50 (read off the curve) [6]: ~0.1 nM | EC50 (read off the curve) [7]: ~0.1 nM | EC50 (read off the curve) [8]: ~0.1 nM | EC50 (read off the curve) [9]: ~0.1 nM | EC50 (read off the curve) [10]: ~0.1 nM | EC50 (read off the curve) [11]: ~0.1 nM | EC50 (read off the curve) [12]: ~0.2 nM | EC50 (read off the curve) [13]: ~0.2 nM | EC50 (read off the curve) [14]: ~0.2 nM | EC50 (read off the curve) [15]: ~0.2 nM

B2
binding result (TNFR2 ECD-Fc [16]): no binding (tested: 10 nM (LOG[Dose] 1))

B3
binding result (TNFR2 ECD-Fc [17]): no binding (tested: 10 nM (LOG[Dose] 1))

B4
binding result (TNFR2 ECD-Fc [18]): no binding (tested: 10 nM (LOG[Dose] 1))

Reference: patent US20250375499A1 (FLAGSHIP PIONEERING INNOVATIONS VII, published 2025)
